Laboratory results taken from US20070077597A1 (published 2007).
Changes are numbered by the printed parent chain. Blank lines part the entries; values can stand above or below the molecule they belong to.

Key:
[1] = molecular target: T1, human thrombin receptor (PAR1) (human, UniProt P25116 42-425); test: ELISA dose-response, purified MBP-Gαq on purified reconstituted PAR1 with thrombin receptor activating peptide
T1 sequence (looked up): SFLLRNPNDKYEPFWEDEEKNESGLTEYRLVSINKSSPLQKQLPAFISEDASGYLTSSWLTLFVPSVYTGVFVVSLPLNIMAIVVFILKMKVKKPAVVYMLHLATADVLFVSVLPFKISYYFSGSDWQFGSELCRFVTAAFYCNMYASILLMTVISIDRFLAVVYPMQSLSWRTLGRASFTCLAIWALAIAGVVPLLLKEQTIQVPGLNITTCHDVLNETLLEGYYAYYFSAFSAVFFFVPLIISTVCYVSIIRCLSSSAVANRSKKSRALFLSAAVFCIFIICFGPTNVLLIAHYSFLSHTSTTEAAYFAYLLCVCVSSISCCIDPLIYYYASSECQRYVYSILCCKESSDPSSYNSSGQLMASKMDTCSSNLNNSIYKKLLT

[2] = molecular target: T1, human thrombin receptor (PAR1); test: cell-based or functional assay
[3] = molecular target: LacI fusion clone 17 (Gt library, dark-adapted rhodopsin screen) (E. coli, UniProt P03023 1-360); test: panning, LacI Gt library on immobilized ROS membranes kept in the dark
[4] = molecular target: LacI fusion clone 7 (Gt library, dark-adapted rhodopsin screen) (E. coli, UniProt P03023 1-360); test: as above
[5] = molecular target: LacI fusion clone 26 (Gt library, dark-adapted rhodopsin screen) (E. coli, UniProt P03023 1-360); test: as above
[6] = molecular target: LacI fusion clone 21 (Gt library, dark-adapted rhodopsin screen) (E. coli, UniProt P03023 1-360); test: as above
[7] = molecular target: LacI fusion clone 3 (Gt library, dark-adapted rhodopsin screen) (E. coli, UniProt P03023 1-360); test: as above
[8] = molecular target: LacI fusion clone 33/37 (Gt library, dark-adapted rhodopsin screen) (E. coli, UniProt P03023 1-360); test: as above
[9] = molecular target: LacI fusion clone 41 (Gt library, dark-adapted rhodopsin screen) (E. coli, UniProt P03023 1-360); test: as above
[10] = molecular target: LacI fusion clone 2 (Gt library, dark-adapted rhodopsin screen) (E. coli, UniProt P03023 1-360); test: as above
[11] = molecular target: T2, light-activated bovine rhodopsin (metarhodopsin II) in rod outer segment membranes (bovine, UniProt P02699 1-348, retinylidene chromophore on Lys-296 (all-trans after light)); test: ELISA of clone lysate on rhodopsin
T2 construct: whole, on cells; also called MII
Experimental: The methods of Example 7 repeated using rhodopsin screening with a Gt library. To identify the rank order of binding, the lysates were analyzed using ELISA methods in which the secondary antibody was conjugated to HRP. Following addition of the substrate, the microplate was read using a spectrophotometer. The binding is the OD₄₅₀ for wells with receptor—OD₄₅₀ for wells in which no receptor (control wells with empty lipid vesicles).

[12] = molecular target: T2, light-activated bovine rhodopsin …; test: first screening of the Gαt library on light-activated rhodopsin

B3: dark-adapted bovine rhodopsin in rod outer segment membranes (receptor, UniProt P02699 1-348, looked up)
chain: MNGTEGPNFYVPFSNKTGVVRSPFEAPQYYLAEPWQFSMLAAYMFLLIMLGFPINFLTLYVTVQHKKLRTPLNYILLNLAVADLFMVFGGFTTTLYTSLHGYFVFGPTGCNLEGFFATLGGEIALWSLVVLAIERYVVVCKPMSNFRFGENHAIMGVAFTWVMALACAAPPLVGWSRYIPEGMQCSCGIDYYTPHEETNNESFVIYMFVVHFIIPLIVIFFCYGQLVFTVKEAAAQQQESATTQKAEKEVTRMVIIMVIAFLICWLPYAGVAFYIFTHQGSDFGPIFMTIPAFFAKTSAVYNPVIYIMMNKQFRNCMVTTLCCGKNPLGDDEASTTVSKTETSQVAPA
modifications: 11-cis retinylidene chromophore on Lys-296
notes: whole, on cells; same protein as m1, left in the dark
binding result [3]: binds | binding result [4]: binds | binding result [5]: binds | binding result [6]: binds | binding result [7]: binds | binding result [8]: binds | binding result [9]: binds | binding result [10]: binds

B4: LacI fusion clone L3 (Gt library) (other, E. coli, not shown: small tags and cut ends)
chain: MKPVTLYDVAEYAGVSYQTVSRVVNQASHVSAKTREKVEAAMAELNYIPNRVAQQLAGKQSLLIGVATSSLALHAPSQIVAAIKSRADQLGASVVVSMVERSGVEACKAAVHNLLAQRVSGLIINYPLDDQDAIAVEAACTNVPALFLDVSDQTPINSIIFSHEDGTRLGVEHLVALGHQQIALLAGPLSSVSARLRLAGWHKYLTRNQIQPIAEREGDWSAMSGFQQTMQMLNEGIVPTAMLVANDQMALGAMRAITESGLRVGADISVVGYDDTEDSSCYIPPLTTIKQDFRLLGQTSVDRLLQLSQGQAVKGNQLLPVSLVKRKTTLAPNTQTASPRALADSLMQLARQVSRLESGQILENLKDCGLF
ELISA (OD450 with receptor minus OD450 without receptor) [11]: 0.839 OD450

B5: LacI fusion clone L38 (Gt library) (other, E. coli, not shown: small tags and cut ends)
chain: B4 chain with I361L, E363D, N364I
ELISA (OD450 with receptor minus OD450 without receptor) [11]: 0.823 OD450

B6: LacI fusion clone L14 (Gt library) (other, E. coli, not shown: small tags and cut ends)
chain: B4 chain with I361L, L362R, F371L
ELISA (OD450 with receptor minus OD450 without receptor) [11]: 0.833 OD450

B7: LacI fusion clone L6 (Gt library) (other, E. coli, not shown: small tags and cut ends)
chain: B4 chain with L362C
ELISA (OD450 with receptor minus OD450 without receptor) [11]: 0.342 OD450

B9: LacI fusion clone 8 (Gt library) (other, E. coli, not shown: small tags and cut ends)
chain: B4 chain with I361L, K366R, L370M
notes: also called Peptide 8; HAP
fold higher binding than the native sequence [12]: 1000 fold

B10: LacI fusion clone 13 (Gt library), IRGSLKDCGLF (other, E. coli, not shown: small tags and cut ends)
chain: B4 chain with L362R, E363G, N364S
notes: also called L20
ELISA (OD450 with receptor minus OD450 without receptor) [11]: 0.423 OD450

B11: LacI fusion clone L10 (Gt library), IHDRLKDCGLF (other, E. coli, not shown: small tags and cut ends)
chain: B4 chain with L362H, E363D, N364R
notes: this is the first
ELISA (OD450 with receptor minus OD450 without receptor) [11]: 0.506 OD450

B14: Gα12 C-terminal minigene peptide (pcDNA-Gα12) (peptide)
peptide: MGLQENLKDIMLQ
thrombin-mediated HA-MAPK activity in HMEC [2]: 50 % decrease

B15: Gα13 C-terminal minigene peptide (pcDNA-Gα13) (peptide)
peptide: MGLHDNLKQLMLQ
thrombin-mediated HA-MAPK activity in HMEC [2]: 77 % decrease

Other lines, results leading:

IC50 [1]: 214 nM
Molecule: purified maltose binding protein-Gαq (MBP-Gαq), native Gq C-terminal peptide fusion

thrombin-mediated HA-MAPK activity in HMEC [2]: 57 % decrease
B1: Gαq C-terminal minigene peptide (pcDNA-Gαq) (peptide)
peptide: MGLQLNLKEYNAV

thrombin-mediated HA-MAPK activity in HMEC [2]: 59 % decrease
B2: Gαi C-terminal minigene peptide (pcDNA-Gαi) (peptide)
peptide: MGIKNNLKDCGLF

ELISA (OD450 with receptor minus OD450 without receptor) [11]: 0.603 OD450
B8: LacI fusion clone L34 (Gt library) (other, E. coli, not shown: small tags and cut ends)
chain: B4 chain with N364S, K366N, D367E

ELISA (OD450 with receptor minus OD450 without receptor) [11]: 1.01 OD450
B12: LacI fusion clone L33 (Gt library) (other, E. coli, not shown: small tags and cut ends)
chain: B4 chain with L362V, N364I, K366E

ELISA (OD450 with receptor minus OD450 without receptor) [11]: 0.621 OD450
B13: LacI fusion clone L15 (Gt library) (other, E. coli, not shown: small tags and cut ends)
chain: B4 chain with I361V, L362R, E363D, N364I
